Reference: patent publication US20250332254A1, “METHODS FOR TREATING PATIENTS WITH FAMILIAL HYPERCHOLESTEROLEMIA” (REGENERON PHARMACEUTICALS, INC., priority 2016, published 2025)

Target: T1, ANGPTL3 (Homo sapiens, UniProt Q9Y5C1)
T1 construct: Angiopoietin-like protein 3 (ANGPTL3) is a secreted protein expressed in the liver; from tissue; host or cells: in vivo, human subjects; circulating protein secreted by the liver
T1 sequence (Q9Y5C1 17-460): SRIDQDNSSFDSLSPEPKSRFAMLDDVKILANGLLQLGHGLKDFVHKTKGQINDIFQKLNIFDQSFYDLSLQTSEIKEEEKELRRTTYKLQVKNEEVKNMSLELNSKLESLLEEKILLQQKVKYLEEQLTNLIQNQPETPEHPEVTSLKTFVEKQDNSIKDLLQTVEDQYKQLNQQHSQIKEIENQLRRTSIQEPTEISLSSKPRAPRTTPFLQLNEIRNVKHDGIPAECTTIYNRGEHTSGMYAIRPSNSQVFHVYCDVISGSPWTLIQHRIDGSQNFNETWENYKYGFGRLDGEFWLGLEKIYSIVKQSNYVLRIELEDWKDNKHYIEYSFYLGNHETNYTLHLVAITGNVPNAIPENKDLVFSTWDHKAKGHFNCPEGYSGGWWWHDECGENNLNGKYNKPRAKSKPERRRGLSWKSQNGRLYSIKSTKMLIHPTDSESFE
Test: Phase 2 open-label study of evinacumab in patients with homozygous familial hypercholesterolemia on concomitant lipid-lowering therapies
Assay type: in vivo
Details: for LDL-C, Mean of Percent Change from Baseline ± SE (%) / Non-HDL-C, Mean of Percent Change from Baseline ± SE (%) / Apolipoprotein B, Mean of Percent Change from Baseline ± SE (%): 250 mg SC wk 0 + 15 mg/kg IV wk 2
Experimental: Patients: The nine patients (5 men, 4 women) were selected based on their genotypes and phenotypes. All presented a history of LDL-C >500 mg per deciliter or >400 mg per deciliter after portacaval shunt, premature atherosclerosis (8 of 9 with prior history of cardiovascular events) and severe xanthomatosis, and were homozygotes or compound heterozygotes for known FH-causing LDLR mutations (Hobbs, et al. 1992 Hum Mutat 1:445-66). Three patients were null homozygotes. All patients were on maximally tolerated lipid-lowering therapy.
Study Treatment: The patients were required to maintain their usual background lipid-lowering therapy and diet and exercise regimens throughout the study. All patients received a single open-label dose of evinacumab 250 mg subcutaneously in the abdominal area during the baseline visit and a single 15 mg per kilogram intravenous dose of evinacumab 2 weeks later. The sterile, lyophilized evinacumab drug product was supplied in a 5-ml single-use glass vial for reconstitution to a concentration of 100 mg per milliliter for subcutaneous doses and 50 mg per milliliter for intravenous doses. Patients were followed for a period of up to 24 weeks after the intravenous dose to allow for washout of evinacumab, and were offered enrollment in an extension study.
Pharmacodynamic Assessment: Fasting blood samples were collected before administration of study drug, at baseline and at regular intervals during the open-label treatment period and safety follow-up period, for measurement of LDL-C, non-HDL-C, total cholesterol, HDL-C, apolipoprotein B, lipoprotein (a), triglycerides, apolipoprotein A-1, and other parameters. The primary endpoint was the mean ±standard deviation (SD) percent change in LDL-C from baseline to week 4.

[1] = 3 homozygous null patients, through week 12

**Q.** For “evinacumab: human anti-ANGPTL3 monoclonal antibody; HCVR SEQ ID NO:1, LCVR SEQ ID NO:5”, which “mean±SD peak reduction in LDL-C” value [1] is on record?
**A.** The value was −48±13%.

**Q.** What about the “range of peak reduction in LDL-C” value [1] of the same substance?
**A.** Its value is −60% to −33%.

**Q.** What about the tolerability (250-mg subcutaneous injection at baseline and 15 mg per kilogram intravenous infusion at week 2) of the same substance?
**A.** The tolerability was “well tolerated”.

**Q.** And the “absolute reductions in LDL-C achieved” value (HoFH patients)?
**A.** Its value is 150 to 200 mg/dL.

**Q.** And the “LDL-C, Mean of Percent Change from Baseline ± SE (%)” value (HoFH patients, Day 4)?
**A.** The value was −12.8 ± 3.7%.

**Q.** What about the “Non-HDL-C, Mean of Percent Change from Baseline ± SE (%)” value (HoFH patients, Day 4) of the same substance?
**A.** Its value is −13.6 ± 3.6%.

**Q.** What about the “LDL-C, Mean of Percent Change from Baseline ± SE (%)” value (HoFH patients, Week 1) of the same substance?
**A.** Its value is −24 ± 7.0%.

**Q.** And the “Non-HDL-C, Mean of Percent Change from Baseline ± SE (%)” value (HoFH patients, Week 1)?
**A.** Its value is −24.1 ± 6.7%.

**Q.** What about the “Apolipoprotein B, Mean of Percent Change from Baseline ± SE (%)” value (HoFH patients, Week 2) of the same substance?
**A.** The value was −24.2 ± 7%.

**Q.** What about the “LDL-C, Mean of Percent Change from Baseline ± SE (%)” value (HoFH patients, Week 2) of the same substance?
**A.** Its value is −30.2 ± 8.1%.

**Q.** What about the “Non-HDL-C, Mean of Percent Change from Baseline ± SE (%)” value (HoFH patients, Week 2) of the same substance?
**A.** Its value is −29.6 ± 7.8%.

**Q.** And the “Apolipoprotein B, Mean of Percent Change from Baseline ± SE (%)” value (HoFH patients, Week 3)?
**A.** The value was −38.6 ± 7.3%.

**Q.** And the “LDL-C, Mean of Percent Change from Baseline ± SE (%)” value (HoFH patients, Week 3)?
**A.** The value was −41.4 ± 8.3%.

**Q.** What about the “Non-HDL-C, Mean of Percent Change from Baseline ± SE (%)” value (HoFH patients, Week 3) of the same substance?
**A.** Its value is −41.6 ± 8%.

**Q.** What about the “Apolipoprotein B, Mean of Percent Change from Baseline ± SE (%)” value (HoFH patients, Week 4) of the same substance?
**A.** The value was −45.9 ± 6.1%.

**Q.** What about the “LDL-C, Mean of Percent Change from Baseline ± SE (%)” value (HoFH patients, Week 4) of the same substance?
**A.** The value was −49.2 ± 7.7%.

**Q.** What about the “Non-HDL-C, Mean of Percent Change from Baseline ± SE (%)” value (HoFH patients, Week 4) of the same substance?
**A.** The value was −48.9 ± 7.4%.

**Q.** What about the “Apolipoprotein B, Mean of Percent Change from Baseline ± SE (%)” value (HoFH patients, Week 5) of the same substance?
**A.** Its value is −42.3 ± 4.7%.

**Q.** And the “LDL-C, Mean of Percent Change from Baseline ± SE (%)” value (HoFH patients, Week 5)?
**A.** The value was −46.8 ± 5.1%.

**Q.** And the “Non-HDL-C, Mean of Percent Change from Baseline ± SE (%)” value (HoFH patients, Week 5)?
**A.** The value was −46.6 ± 5.0%.

**Q.** What about the “Apolipoprotein B, Mean of Percent Change from Baseline ± SE (%)” value (HoFH patients, Week 6) of the same substance?
**A.** Its value is −43.1 ± 4.9%.

**Q.** What about the “LDL-C, Mean of Percent Change from Baseline ± SE (%)” value (HoFH patients, Week 6) of the same substance?
**A.** Its value is −52.1 ± 4.9%.

**Q.** And the “Non-HDL-C, Mean of Percent Change from Baseline ± SE (%)” value (HoFH patients, Week 6)?
**A.** The value was −51.5 ± 4.8%.

**Q.** What about the “Apolipoprotein B, Mean of Percent Change from Baseline ± SE (%)” value (HoFH patients, Week 8) of the same substance?
**A.** The value was −42.7 ± 4.8%.

**Q.** What about the “LDL-C, Mean of Percent Change from Baseline ± SE (%)” value (HoFH patients, Week 8) of the same substance?
**A.** Its value is −51.6 ± 6.0%.

**Q.** What about the “Non-HDL-C, Mean of Percent Change from Baseline ± SE (%)” value (HoFH patients, Week 8) of the same substance?
**A.** Its value is −50.6 ± 5.7%.

**Q.** What about the “LDL-C, Mean of Percent Change from Baseline ± SE (%)” value (HoFH patients, Week 10) of the same substance?
**A.** Its value is −45.6 ± 4.6%.

**Q.** And the “Non-HDL-C, Mean of Percent Change from Baseline ± SE (%)” value (HoFH patients, Week 10)?
**A.** The value was −44.8 ± 4.4%.

**Q.** What about the “Apolipoprotein B, Mean of Percent Change from Baseline ± SE (%)” value (HoFH patients, Week 12) of the same substance?
**A.** Its value is −29.5 ± 7.2%.

**Q.** What about the “LDL-C, Mean of Percent Change from Baseline ± SE (%)” value (HoFH patients, Week 12) of the same substance?
**A.** The value was −36.6 ± 6.4%.

**Q.** And the “Non-HDL-C, Mean of Percent Change from Baseline ± SE (%)” value (HoFH patients, Week 12)?
**A.** The value was −36.4 ± 6.2%.

**Q.** And the “LDL-C reached, Patient C” value (Patient C on high-dose statins, ezetimibe and lomitapide, week 4, 2 weeks after evinacumab intravenous administration)?
**A.** Its value is 15 mg per deciliter.

**Q.** And the “reduction in LDL-C, Patient C” value (Patient C, concomitant lomitapide, 2 weeks after evinacumab intravenous administration)?
**A.** The value was 90%.

**Q.** What about the “reduction in LDL-C, Patient G” value (Patient G, concomitant lomitapide, 2 weeks after evinacumab intravenous administration) of the same substance?
**A.** Its value is 44%.

**Q.** And the “reductions in LDL-C from baseline in all patients” value (all nine patients, including the three homozygous null patients lacking LDLR activity)?
**A.** The value was “clinically meaningful reductions in LDL-C from baseline”.

**Q.** What about the “normalization of LDL-C concentrations” value (evinacumab add-on therapy in HoFH participants) of the same substance?
**A.** Its value is “normalization of LDL-C concentrations in four HoFH participants”.

**Q.** What about the “LDL-C decreased (primary endpoint)” value (nine HoFH adults on maximally-tolerated conventional therapies, week 4, given as a decrease) of the same substance?
**A.** The value was 49%.
